The values below come from patent publication US20170022281A1 (AbbVie / Abbott, published 2017).

Numbering of substitutions follows the chain as printed.

Assay [1] deals with T1, cyno PRLR (Biacore antigen) (cyno, UniProt A0A2K5WXK1 25-234).
T1 construct: also called cyPRLR
T1 sequence: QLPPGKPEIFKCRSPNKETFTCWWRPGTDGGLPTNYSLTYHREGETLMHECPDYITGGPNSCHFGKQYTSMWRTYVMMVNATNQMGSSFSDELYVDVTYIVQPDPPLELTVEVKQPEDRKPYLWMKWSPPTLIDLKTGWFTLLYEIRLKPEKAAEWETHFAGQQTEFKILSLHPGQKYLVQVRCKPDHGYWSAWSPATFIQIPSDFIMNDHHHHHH
The assay is described as follows: SPR Biacore. A digest of the protocol: (§1)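 Association rate, dissociation rate and dissociation constant were measured by surface plasmon resonance on a Biacore instrument. PRLR antigen was tested at 600 nM, 66.67 nM and 7.41 nM, a 3-point, 9-fold dilution series. Constants came from a 1:1 binding model fit (local Rmax, mass-transport term included) in Biacore T200 Evaluation Software.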
(In general: Surface plasmon resonance follows binding to a sensor surface in real time, without labels.)

Assay [2] addresses T2, murine PRLR (Biacore antigen) (murine, UniProt Q08501 20-229, limits assumed).
T2 construct: also called muPRLR
T2 sequence (looked up): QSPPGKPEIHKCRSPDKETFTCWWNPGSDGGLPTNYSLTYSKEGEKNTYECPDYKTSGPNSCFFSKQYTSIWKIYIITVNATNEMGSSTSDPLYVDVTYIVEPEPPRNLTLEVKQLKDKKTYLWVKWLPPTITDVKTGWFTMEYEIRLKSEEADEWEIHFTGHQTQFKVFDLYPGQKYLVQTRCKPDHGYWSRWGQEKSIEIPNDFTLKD
Nature of the assay: SPR Biacore. A digest of the protocol:
as §1

Assay [3] addresses T3, human PRLR (Biacore antigen) (human, UniProt P16471 25-234, limits assumed).
T3 construct: The construct injected over captured antibody is not described (a soluble form is likely); also called huPRLR
T3 sequence: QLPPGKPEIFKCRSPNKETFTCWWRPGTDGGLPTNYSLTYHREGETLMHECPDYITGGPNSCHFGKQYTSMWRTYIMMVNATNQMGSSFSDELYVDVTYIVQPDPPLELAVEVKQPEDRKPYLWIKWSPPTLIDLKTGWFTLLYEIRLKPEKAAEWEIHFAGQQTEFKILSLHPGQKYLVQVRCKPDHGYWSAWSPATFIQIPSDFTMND
Nature of the assay: SPR Biacore. The procedure, abridged:
as §1

Assay [4] concerns the target cyno PRLR on Baf3-cyPRLR cells (cyno). Nature of the assay: cell-based or functional assay.
Assay [5] concerns the target T4, mouse PRLR on Baf3-mPRLR cells (mouse, UniProt Q08501 20-608).
T4 sequence (looked up): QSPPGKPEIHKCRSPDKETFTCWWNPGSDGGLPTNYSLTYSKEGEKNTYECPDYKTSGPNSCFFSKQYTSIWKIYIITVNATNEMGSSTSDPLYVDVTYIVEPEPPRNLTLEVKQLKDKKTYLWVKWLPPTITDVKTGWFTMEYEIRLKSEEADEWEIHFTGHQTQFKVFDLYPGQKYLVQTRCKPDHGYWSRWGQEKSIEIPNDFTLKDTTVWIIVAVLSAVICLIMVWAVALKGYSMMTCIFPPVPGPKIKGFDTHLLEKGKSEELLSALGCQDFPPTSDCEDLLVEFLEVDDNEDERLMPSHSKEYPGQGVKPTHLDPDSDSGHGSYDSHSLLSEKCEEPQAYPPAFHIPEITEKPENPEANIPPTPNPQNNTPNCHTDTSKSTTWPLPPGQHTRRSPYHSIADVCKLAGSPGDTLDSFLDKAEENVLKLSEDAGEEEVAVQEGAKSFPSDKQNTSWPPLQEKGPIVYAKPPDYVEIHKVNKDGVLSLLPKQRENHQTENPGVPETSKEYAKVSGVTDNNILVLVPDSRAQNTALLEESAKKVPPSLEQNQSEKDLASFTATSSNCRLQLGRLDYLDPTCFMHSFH
The assay is described as follows: cell-based or functional assay.

For assay [6], the target named is T3, human PRLR (Biacore antigen). Nature of the assay: SPR simultaneous binding; PRLR held by surface mAb Ab19. The procedure:
(§2) Running buffer was HBS-EP+ (10 mM Hepes, pH7.4, 150 mM NaCl, 3 mM EDTA, 0.05% surfactant). Assay was performed at 12° C. using Biacore T200 and CM5 sensor chips with anti-human IgG (Pierce) amine-coupled in all 4 flow cells to ˜2000 RU.
(§3) Separate test mAbs were captured in flowcells 2, 3 & 4 (flowcell 1 was reference, no test mAb). All 4 flowcells were then blocked by injection with isotype control mAb at 50 ug/ml. All 4 flowcells were then injected with antigen or buffer only (buffer only is for double referencing, done for each mAb pair individually). All 4 flowcells were then injected with 2nd test mAb at 10 ug/ml. All 4 flowcells were then regenerated with glycine, pH1.5.

For assay [7] the target is unchanged. The assay is described as follows: SPR simultaneous binding; PRLR held by surface mAb Ab21. The method, then: as §2, §3
Assay [8] shares this target. Nature of the assay: SPR simultaneous binding; PRLR held by surface mAb Ab39. The method, then:
as §2, §3

The target is the same in assay [9]. Nature of the assay: SPR simultaneous binding; PRLR held by surface mAb Ab49. The method, then: as §2, §3
Assay [10] shares this target. The assay is described as follows: SPR simultaneous binding; PRLR held by surface mAb chAb5. The procedure: as §2, §3
The target is the same in assay [11]. The assay is described as follows: SPR simultaneous binding; PRLR held by surface mAb chAb6. The procedure: as §2, §3
Assay [12] shares this target. Nature of the assay: SPR simultaneous binding; PRLR held by surface mAb chAb7. The method, then: as §2, §3

B1: chAb5 (antibody, human IgG1, kappa, V domains shown)
VH: QVQLQQPGAELVRPGTSVKLSCKASGYTFTSFWMHWVKQRPGQGLEWIGVIDPSDTYTNYNQKFKGKATLTVDTSSSTAYMQLSSLTSEDSAVYYCARGDYSNWFTYWGQGTLVTVSA
VL: DVVMTQTPLSLPVSLGDQASISCRSSQRLVHSNGNTYLHWYLQKPGQSPKLLIYKVSNRFSGVPDRFSGSGSGTDFTLKISRVEAEDLGVYFCSQSTHVPWTFGGGTKLEIKT
notes: chimeric, murine variable and human G1/kappa constant regions
On to B1, for which the Kd – broadly, the concentration at which binding is half-saturated – in assay [1] worked out at 671 pM; in assay [2], 13800 pM; in [3], 558 pM. The koff – broadly, a measure of how fast the partners let go of each other – in assay [1] came to 0.000223 s⁻¹; in assay [2], 0.00277 s⁻¹; in assay [3], 0.000199 s⁻¹. For the same molecule, the kon (in general, a measure of how fast the partners come together) came to 333000 M⁻¹ s⁻¹ in assay [1], 200000 M⁻¹ s⁻¹ in assay [2] and 356000 M⁻¹ s⁻¹ in assay [3]. In addition, the “Baf3-cyPRLR proliferation IC50” value in assay [4] was 0.42 µg/mL. In addition, in assay [5], the “Baf3-mPRLR proliferation IC50” value was 2.51 µg/mL. The “solution mAb binding, % of PRLR binding” value in assay [6] was 0%; in assay [7], -1%; in [8], -2%; in assay [9] it was 7%; in assay [10], 0%; in assay [11], -1%. In addition, in assay [12], the “solution mAb binding, % of PRLR binding” value was determined as 0%.

B2: chAb7 (antibody, human IgG1, kappa, V domains shown)
VH: QVQLQQPGAELVMPGTSVKLSCKASGYTFTSYWIHWVKQRPGQGLEWIGEIDPSDSYTNYNQKFKGKATLTVDRSSSTAYMQLSSLTSEDSAVYYCGRSFFTNWFAYWGQGTLVTVSA
VL: B1 VL with R28S, S81N, W101F, G105S
notes: as for B1
Consider B2, for which the Kd in [1] was 154 pM; in assay [2], 44900 pM; in assay [3] it was 180 pM. Besides, the values for the koff in assay [1], in assay [2] and in [3] were 3.61e-05 s⁻¹, 0.00357 s⁻¹ and 4.46e-05 s⁻¹, respectively. Further, the kon amounted to 235000 M⁻¹ s⁻¹ in assay [1], 79500 M⁻¹ s⁻¹ in [2] and 248000 M⁻¹ s⁻¹ in [3]. The “Baf3-cyPRLR proliferation IC50” value in [4] amounted to 1.9 µg/mL. Also, the “Baf3-mPRLR proliferation IC50” value in assay [5] turned out to be 3.6 µg/mL. For the same molecule, the “solution mAb binding, % of PRLR binding” value is -1% in [6]; -1% in assay [7]; -2% in assay [8]; 2% in assay [9]; -1% in [10]; -1% in assay [11]. Besides, the “solution mAb binding, % of PRLR binding” value in assay [12] was found to be 0%.
